Test results reported in article PMC3978166, “A new unconventional HLA-A2-restricted epitope from HBV core protein elicits antiviral cytotoxic T lymphocytes” (Protein & Cell, 2014).

How the values were obtained:
[1] = molecular target: HLA-A*0201 molecules on T2 cells (human (endogenous in T2)); assay: flow cytometry on cells
HLA-A*0201 molecules = HLA-A*0201 molecules (Homo sapiens, UniProt P04439, D140Y/D185E/D98H/E176V/E277Q/G131W/G231S/I119V/I121R/I166T/I218V/L300P/L318F/N151K/N90K/P208A/P217A/Q86G/Q94H/R138H/R169H/T345S); assay: T2 binding assay (MHC stabilization assay with T2 cells, flow cytometry); type: cell-based; conditions: FI = (mean FITC fluorescence with peptide − without peptide)/(without peptide), high affinity FI ≥1, representative of three independent experiments
Description: (A) The overlapping method of 8 aa overlap was used to synthesize a total of 191 nonapeptides covering HBc aa 1–150. […] (C and D) Measurement of the binding affinity of HBc141–149N- or C-terminally truncated (C) or extended (D) peptides to HLA-A*0201. HBc82-90 served as a negative control (NC). (E) In vitro refolding of HBC141–149 peptide with HLA-A*0201 heavy chain and β2m. Gel filtration chromatography was used to analyze the refolded complexes on a Superdex200 16/60 column. […] The HLA complex (peak 2) was analyzed by SDS-PAGE electrophoresis and coomassie blue staining
T2 cells were used to perform MHC stabilization assays as previously described (Zhou et al., [2006]). The binding activity of each peptide was calculated as the fluorescent index (FI), and the FI was determined by: (mean FITC fluorescence with the given peptide − mean FITC fluorescence without peptide) (mean FITC fluorescence without peptide).

peptide-specific CTLs [2] = assay: IFN-γ ELISPOT on splenocytes of immunized HLA-A2.1/Kb transgenic mice; type: in vivo; conditions: female HLA-A2.1/Kb mice, HBc DNA prime/peptide boost with gp96 adjuvant, 1 week after last immunization; 5 × 10^5 splenocytes; mean ± SD of five mice (Fig. 3A)
Experimental: Figure 3 Detection of HBc141–149 peptide-specific CD8 ^+ T cell response in HLA-A2.1/Kb mice and AHB patients. Female HLA-A2.1/Kb transgenic mice were immunized with an HBV DNA prime/peptide boost regimen at weeks 1, 3, and 4. […] (B and C) 293T cells labeled with CFSE were transfected with pHBV1.3 as target cells (B), and T2 cells labeled with CFSE were loaded with 20 μg/mL peptide at 37°C for 1 h as target cells (C). […] After 4 h, the mixed samples were stained with PI, and the killing of target cells were analyzed by FACS. The data shown are the mean ± SD of five mice. (D) AHB patients (n = 29) were divided into HLA-A2-positive (n = 19) and HLA-A2-negative (n = 10) groups. PBMCs (2 × 10^5/well) from these patients were stimulated with the indicated peptides for detection of peptide-specific CTLs by ELISPOT assay. HBc82–90 peptide served as negative control for background evaluation in ELISPOT assay. PBMCs from HLA-A2- patients were used for specificity evaluation of CTLs. Paired samples t-tests were used for ELISPOT assay in AHB patients. *P < 0.05 and **P < 0.01 by t-test. Data are representative of two independent experiments […]
To detect epitope-specific T cells, enzyme-linked immunosorbent spot (ELISPOT) assay was performed according to the manufacturer’s instruction. […] The spots were counted and analyzed using an ELISPOT Reader (Cellular Technology Ltd, USA).

peptide-specific CTLs [3] = assay: Ex vivo IFN-γ ELISPOT on PBMCs from HLA-A2+ AHB patients; type: cell-based, human; conditions: PBMCs 2 × 10^5/well from HLA-A2+ AHB patients (n = 19), 50 μg/mL peptide; mean ± SD (Fig. 3D)
Description: (D) AHB patients (n = 29) were divided into HLA-A2-positive (n = 19) and HLA-A2-negative (n = 10) groups. PBMCs (2 × 10^5/well) from these patients were stimulated with the indicated peptides for detection of peptide-specific CTLs by ELISPOT assay. […] PBMCs from HLA-A2- patients were used for specificity evaluation of CTLs. Paired samples t-tests were used for ELISPOT assay in AHB patients. *P < 0.05 and **P < 0.01 by t-test. Data are representative of two independent experiments
A total of 29 AHB patients were enrolled for blood collection, which were divided into two groups: HLA-A2-positive (n = 19) and HLA-A2-negative (n = 10). All patients were negative for HCV, HDV, and HIV-1 infection. 10 mL of blood samples were collected from each patient.
To detect epitope-specific T cells, enzyme-linked immunosorbent spot (ELISPOT) assay was performed according to the manufacturer’s instruction. Briefly, ninety-six well PVDF plates (BD-Pharmigen, San Diego, CA) were precoated overnight at 4°C with the coating Ab and blocked for 1 h at 37°C. Patient PBMCs (2 × 10^5) or murine splenocytes (10^6) were added to each well together with 50 μg/mL of peptide and incubated at 37°C for 24–48 h with phytohemagglutinin (PHA)-stimulated T cells as positive controls. Each test was performed at least in triplicate. The spots were counted and analyzed using an ELISPOT Reader (Cellular Technology Ltd, USA).

Substance	FI (fluorescent index) [1]	FI (fluorescent index), binding to HLA-A*0201 (HLA-A*0201 molecules)	further results
HBc140–149 peptide	0.033		
STLPETTV [HBc141–148]		0.124	
HBc142–149 peptide	0.151		
RELVVSYVN [HBc82–90]			peptide-specific CTL response, IFN-γ ELISPOT (SFC) (peptide-specific CTLs [2]): No peptide-specific CD8^+ T cell response was detected; peptide-specific CTL response, ex vivo IFN-γ ELISPOT (peptide-specific CTLs [3]): 20.94 ± 17.57
HBc141–149 peptide	2.41		
LSTLPETTVV [HBc140–149, extended decapeptide of HBc141–149, […]]		0.033	
HBc141–148 peptide	0.124		
TLPETTVV [HBc142–149]		0.151	
HBc141–150 peptide	0.005		
HBc60–68 (V60) peptide	2.64		
